This is an account of results in patent US20220267415A1.

Common to all, as to settings: remark: other sources report otherwise
The target in experiment [1] is recombinant SARS-CoV-2 Receptor Binding Domain (RBD) with a his tag (ATUM, Cat. 65639.1.a) (SARS-CoV-2), P0DTC2. Kind of experiment: ELISA on coated RBD-his. A general note: In an ELISA, binding on a coated surface is turned into a signal by an enzyme label.
The target of experiment [2] is T1, recombinant Spike protein (Sino Biologicals Cat #40589-V08B1) (SARS-CoV-2), P0DTC2. In words: BLI (Octet), His-tagged S on Ni-NTA sensor, avidity. (In BLI a coated tip is dipped into the sample, and binding shifts an interference pattern.)
Experiment [3] has as its target T1, recombinant Spike protein (Sino …). In words: ELISA on coated recombinant spike.
Experiment [4] concerns the target T2, wild type RBD protein (generated as in Ku et al. 2021) (SARS-CoV-2), P0DTC2. In words: binding KD on RBD protein, generally as Example 4.
Experiment [5] deals with T2, wild type RBD protein (generated as in …). Kind of experiment: BLI competition, RBD on sensor, antibody then ACE2; competitor ACE2.

B1: anti-SARS-CoV2-14 IgG (lambda-VL-kappa-CL hybrid light chain) (antibody, V domains shown)
VH: EVQLQQSGPGLVKPSQTLSLTCAISGDSVSSNSAAWNWIRQSPSRGLEWLGRTYYRSKWYNDYAVSVKSRITINPDTSKNQFSLQLNSVTPEDTAVYYCAREEQQLVHDYYYYGMDVWGQGTMVTVSS
VL: QAVVTQPASVSGSPGQSITISCTGTSSDIGAYNYISWYQQHPGKAPKLIIYEVSNRPSGISYRFSGSKSGNTASLTISGLQAEDEANYYCSSYAGSISFGGGTKVTVL
By EC50 is commonly meant the midpoint of the concentration-response curve. In general, koff refers to a measure of how fast the partners let go of each other. Usually kon stands for the second-order rate constant of association. In the case of B1, the EC50 in experiment [1] was greater than 60 nM. In experiment [2], the Kd was found to be 1.39 nM, the koff was determined as 0.0013 s⁻¹ and the kon is 933000 M⁻¹ s⁻¹. The EC50 in experiment [3] came out at 6.22 nM.

B2: anti-SARS-CoV2-14 IgG (full lambda light chain) (antibody, V domains shown)
VH: B1 VH
VL: B1 VL
In turn, B2 displayed a Kd in experiment [4] of 0.82 nM. Also, in experiment [5], the EC50 came to 18.6 nM.
